Reference: US20030113787A1 (Takeda / Millennium, published 2003)

T1: FLAG-CARD10/ΔCARD (human, UniProt Q9BWT7 131-1032)
T1 construct: also called CARD-10 truncation mutant lacking its CARD domain
T1 sequence: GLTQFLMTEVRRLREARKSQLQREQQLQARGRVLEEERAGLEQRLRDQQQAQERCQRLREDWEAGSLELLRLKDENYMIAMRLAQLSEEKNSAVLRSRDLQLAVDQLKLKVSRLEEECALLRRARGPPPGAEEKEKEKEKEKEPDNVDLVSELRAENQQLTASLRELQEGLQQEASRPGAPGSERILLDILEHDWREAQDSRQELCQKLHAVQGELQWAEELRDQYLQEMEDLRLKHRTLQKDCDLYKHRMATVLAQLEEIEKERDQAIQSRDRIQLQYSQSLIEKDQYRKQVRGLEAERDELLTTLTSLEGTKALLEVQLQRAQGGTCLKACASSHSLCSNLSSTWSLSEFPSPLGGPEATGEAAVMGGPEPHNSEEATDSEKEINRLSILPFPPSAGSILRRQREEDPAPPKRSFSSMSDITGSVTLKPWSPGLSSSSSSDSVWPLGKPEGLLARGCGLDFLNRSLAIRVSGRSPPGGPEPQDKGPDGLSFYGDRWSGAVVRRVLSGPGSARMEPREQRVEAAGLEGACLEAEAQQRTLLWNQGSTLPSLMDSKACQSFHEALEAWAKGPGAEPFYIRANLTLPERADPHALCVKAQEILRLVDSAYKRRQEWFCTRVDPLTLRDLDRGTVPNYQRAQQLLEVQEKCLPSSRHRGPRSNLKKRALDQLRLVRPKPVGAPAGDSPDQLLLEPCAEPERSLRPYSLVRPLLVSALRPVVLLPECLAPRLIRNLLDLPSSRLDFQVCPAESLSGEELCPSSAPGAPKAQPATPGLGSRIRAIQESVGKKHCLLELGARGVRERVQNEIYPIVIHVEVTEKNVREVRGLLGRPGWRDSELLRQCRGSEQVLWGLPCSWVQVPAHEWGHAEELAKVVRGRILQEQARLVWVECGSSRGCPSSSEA

T2: FLAG-tagged CARD-10 (human, UniProt Q9BWT7 1-1032)
T2 construct: Expressed in 293T cells; also called FLAG-CARD-10
T2 sequence: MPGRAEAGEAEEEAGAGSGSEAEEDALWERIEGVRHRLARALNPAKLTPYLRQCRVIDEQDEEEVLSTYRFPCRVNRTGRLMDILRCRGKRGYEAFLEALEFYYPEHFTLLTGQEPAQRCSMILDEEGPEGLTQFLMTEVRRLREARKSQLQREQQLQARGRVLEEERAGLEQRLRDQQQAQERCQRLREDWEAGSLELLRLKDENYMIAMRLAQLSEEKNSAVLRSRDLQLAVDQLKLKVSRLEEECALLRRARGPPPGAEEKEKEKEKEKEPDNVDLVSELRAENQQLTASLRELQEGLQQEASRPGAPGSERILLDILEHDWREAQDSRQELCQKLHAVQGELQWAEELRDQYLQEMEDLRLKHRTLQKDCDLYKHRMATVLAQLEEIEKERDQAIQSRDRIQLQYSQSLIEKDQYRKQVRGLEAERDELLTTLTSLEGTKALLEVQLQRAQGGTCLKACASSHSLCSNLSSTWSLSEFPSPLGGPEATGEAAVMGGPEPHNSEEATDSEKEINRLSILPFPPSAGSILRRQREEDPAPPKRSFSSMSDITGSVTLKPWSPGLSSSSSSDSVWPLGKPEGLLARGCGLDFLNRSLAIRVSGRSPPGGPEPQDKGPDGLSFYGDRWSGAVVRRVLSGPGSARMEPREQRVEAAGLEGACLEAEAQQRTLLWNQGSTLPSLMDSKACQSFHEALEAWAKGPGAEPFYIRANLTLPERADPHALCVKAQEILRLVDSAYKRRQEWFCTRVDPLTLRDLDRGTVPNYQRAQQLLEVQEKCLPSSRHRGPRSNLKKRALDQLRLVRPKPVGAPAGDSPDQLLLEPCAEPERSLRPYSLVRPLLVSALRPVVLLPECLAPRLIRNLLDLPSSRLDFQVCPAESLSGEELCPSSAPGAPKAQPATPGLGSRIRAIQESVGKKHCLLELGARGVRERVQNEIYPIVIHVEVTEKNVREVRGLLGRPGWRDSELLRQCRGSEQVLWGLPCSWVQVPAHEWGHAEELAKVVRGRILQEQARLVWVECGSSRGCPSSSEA

B1: variant Bcl-10 with a point mutation (L41R) (other, UniProt O95999 1-233, looked up)
chain: MEPTAPSLTEEDLTEVKKDALENLRVYLCEKIIAERHFDHRRAKKILSREDTEEISCRTSSRKRAGKLLDYLQENPKGLDTLVESIRREKTQNFLIQKITDEVLKLRNIKLEHLKGLKCSSCEPFPDGATNNLSRSNSDESNFSEKLRASTVMYHPEGESSTTPFFSTNSSLNLPVLEVGRTENTIFSSTTLPRPGDPGAPPLPPDLQLEEEGTCANSSEMFLPLRSRTVSRQ
notes: also called Bcl-10 L41R mutant
B2: endogenous Bcl-10 (other, human, UniProt O95999 1-233, looked up)
chain: MEPTAPSLTEEDLTEVKKDALENLRVYLCEKIIAERHFDHLRAKKILSREDTEEISCRTSSRKRAGKLLDYLQENPKGLDTLVESIRREKTQNFLIQKITDEVLKLRNIKLEHLKGLKCSSCEPFPDGATNNLSRSNSDESNFSEKLRASTVMYHPEGESSTTPFFSTNSSLNLPVLEVGRTENTIFSSTTLPRPGDPGAPPLPPDLQLEEEGTCANSSEMFLPLRSRTVSRQ
notes: Endogenous protein in cell extracts

Columns and labels:
[1] = biological target: T1, FLAG-CARD10/ΔCARD; assay: co-immunoprecipitation from transfected 293T cells
[2] = biological target: T2, FLAG-tagged CARD-10; assay: co-immunoprecipitation from transfected 293T cells
[3] = biological target: T1, FLAG-CARD10/ΔCARD; assay: co-immunoprecipitation with anti-Bcl-10 antibodies, anti-FLAG blot

Binder | binding result [1] | binding result [2] | binding result [3]
B1 | no binding | no binding | –
B2 | – | – | no binding
